± gives the half width of the 95% confidence interval.
Legend:
[1] = folding stability dG unfold from trypsin proteolysis; higher = more stable
How it was run: (§1)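 How resistant each design was to proteolysis was captured as K50, inferred by Bayesian fitting of sequencing counts. Unfolding free energy was then derived relative to a sequence-predicted unfolded-state K50 and a shared folded-state K50, per protease or combined. Digestion used trypsin and chymotrypsin at 11 threefold-diluted concentrations plus a no-protease condition, on mini-proteins under 80 residues without cysteine in a PA-tagged cDNA display construct. Designs were kept only when AlphaFold2 dimer inter-PAE was above 15.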

[2] = folding stability dG unfold from chymotrypsin proteolysis; higher = more stable
How it was run: as §1

[3] = folding stability dG unfold (combined trypsin and chymotrypsin); higher = more stable
How it was run: as §1

In the case of “SAGGSAGGSAGGSSIRIWIFFPGYFFRITIKPDPGNPNMIKIDITEIIPPDQMDDEDLISAGGSAGGSAGGS [r4_316_TrROS]”, the “folding stability dG unfold” value [1] is reported as 3.53 ± 0.26 kcal/mol, the “folding stability dG unfold” value [2] is reported as 4.38 ± 0.14 kcal/mol and the “folding stability dG unfold” value [3] is reported as 4.38 ± 0.3 kcal/mol.

For “SAGGSAGGSAGGVPRLERFTLSPNGLPVRIFVDGDRALVVFEGPDGGLAVATFAVSDIPFSAGGSAGGSAGG [r7_653_TrMRF]”, the “folding stability dG unfold” value [1] was 0.857 ± 0.03 kcal/mol, the “folding stability dG unfold” value [2] was 1.62 ± 0.047 kcal/mol and the “folding stability dG unfold” value [3] was 1.31 ± 0.064 kcal/mol.

For “SAGGSAGGSAGKEEIKIEITKVEPLEDGSYIAEVIATPKNGKKIPYTALIDPKTGKITIGSAGGSAGGSAGG [r11_31_TrMRF]”, the “folding stability dG unfold” value [1] was 0.527 ± 0.11 kcal/mol, the “folding stability dG unfold” value [2] was 0.18 ± 0.14 kcal/mol and the “folding stability dG unfold” value [3] was 0.426 ± 0.087 kcal/mol.

With “SAGGSAGGSAGGNFKITEPVEEYPNPNGNPIKVFTFKNPDDGPEFTFIFMPNGNWQFIPSAGGSAGGSAGGS [r10_1123_TrROS]” the “folding stability dG unfold” value [1] was 0.674 ± 0.09 kcal/mol, the “folding stability dG unfold” value [2] was 0.797 ± 0.14 kcal/mol and the “folding stability dG unfold” value [3] was 0.77 ± 0.12 kcal/mol.

With “SAGPKNREIKVRIQFNGNWVEYKMPDNDLKELVKNGGLQIAGVDPEKDEIMIQIPVPPPKPDPEDGKPKSAG [r5_868_TrROS]” the “folding stability dG unfold” value [1] was -0.0867 ± 0.19 kcal/mol, the “folding stability dG unfold” value [2] was 1.23 ± 0.083 kcal/mol and the “folding stability dG unfold” value [3] was 0.773 ± 0.15 kcal/mol.

With “SAGGSMSLEGVSTVSEEKFPEKPTTLVPLTYPDGTTVEANRTLDPVTGKWTLPVTTPDGTVVVVDESAGGSA [r2_490_JUSTAS]” the “folding stability dG unfold” value [1] was 1.34 ± 0.048 kcal/mol, the “folding stability dG unfold” value [2] was 0.487 ± 0.073 kcal/mol and the “folding stability dG unfold” value [3] was 0.977 ± 0.089 kcal/mol.

In the case of “SAGGSAGGSAGELSLEEIKKLAPDETAVVKLPPSPETIVITVSTNPNGTLKIEIKRYPPGSAGGSAGGSAGG [r11_13_JUSTAS]”, the “folding stability dG unfold” value [1] is reported as 0.566 ± 0.037 kcal/mol, the “folding stability dG unfold” value [2] is reported as 0.657 ± 0.03 kcal/mol and the “folding stability dG unfold” value [3] is reported as 0.674 ± 0.1 kcal/mol.

With “SAGGSAGGSAGKDIAKNIPPGAKILPIEPQPRGGGLYVKIEIEMPDPNGKKEKVTFTFPISAGGSAGGSAGG [r17_140_TrROS]” the “folding stability dG unfold” value [1] was -0.467 ± 0.14 kcal/mol, the “folding stability dG unfold” value [2] was 0.589 ± 0.26 kcal/mol and the “folding stability dG unfold” value [3] was 0.366 ± 0.26 kcal/mol.

With “SAGGMTIITTTFTLKLPSNGKVVTVTKTYNLSPEEGKKEAEKIAKEIAEELKEPTEILEIKITYYPESAGGS [r16_140_JUSTAS]” the “folding stability dG unfold” value [1] was 1.26 ± 0.092 kcal/mol, the “folding stability dG unfold” value [2] was 2 ± 0.085 kcal/mol and the “folding stability dG unfold” value [3] was 1.7 ± 0.27 kcal/mol.

For “SAGMKITVVELDGKSPEELSEEELKKLAEELLKELFPDVKKVKKVTVKVERLPDGRLVLVEVEIEVEEPSAG [r5_526_TrROS_Hall]”, the “folding stability dG unfold” value [1] was 2.18 ± 0.13 kcal/mol, the “folding stability dG unfold” value [2] was 1.03 ± 0.089 kcal/mol and the “folding stability dG unfold” value [3] was 1.79 ± 0.13 kcal/mol.

In the case of “SAGGSAGGMIIRITTKNGKTLEIKAKSLEEAKAAIAEKLGLSKENIKPEDITKVEIYSEEELKESAGGSAGG [r6_586_TrROS_Hall]”, the “folding stability dG unfold” value [1] is reported as 2.95 ± 0.17 kcal/mol, the “folding stability dG unfold” value [2] is reported as 3.28 ± 0.15 kcal/mol and the “folding stability dG unfold” value [3] is reported as 3.12 ± 0.16 kcal/mol.

In the case of “SAGGGKKYRVTLELTLPDGTKLTLEFEFEVVPPAVPKPVVTTSLDDIAEFDPETGTAIDKKNKKPIPLPSAG [r5_807_TrMRF]”, the “folding stability dG unfold” value [1] is reported as 1.5 ± 0.12 kcal/mol, the “folding stability dG unfold” value [2] is reported as 3.1 ± 0.065 kcal/mol and the “folding stability dG unfold” value [3] is reported as 2.66 ± 0.19 kcal/mol.

In the case of “SAEMTEEERARRLAEKLREELEELGVEKVEIEFDEEERRVTVRVTLSPEVREKLAERLGLSREELDALLSAG [r14_688_TrROS_Hall]”, the “folding stability dG unfold” value [1] is reported as 4.1 ± 0.1 kcal/mol, the “folding stability dG unfold” value [2] is reported as 2.914 ± 0.023 kcal/mol and the “folding stability dG unfold” value [3] is reported as 3.43 ± 0.079 kcal/mol.

In the case of “SAGGSAGGSAGMPVKVVLVKWKGGGLEPEGGEEREVEIGPEELEKLVKEAEKEGYEVYPASAGGSAGGSAGG [r17_18_TrMRF]”, the “folding stability dG unfold” value [1] is reported as 0.165 ± 0.11 kcal/mol, the “folding stability dG unfold” value [2] is reported as -0.126 ± 0.35 kcal/mol and the “folding stability dG unfold” value [3] is reported as 0.0684 ± 0.36 kcal/mol.

For “SAGGEVLVIELSLEELKNLKPNQTVKIKLPDGSELEVRVEEVDGRLYLFVRNKENPEEVELIEEITIESAGG [r13_745_TrROS_Hall]”, the “folding stability dG unfold” value [1] was 2.79 ± 0.062 kcal/mol, the “folding stability dG unfold” value [2] was 3.48 ± 0.049 kcal/mol and the “folding stability dG unfold” value [3] was 3.3 ± 0.065 kcal/mol.

With “SAGGSAGGSAGPSDDVKPYEVEAEFLIPGTGERVRVRAEVYTLDEEKGLALVRVEVEPVLSAGGSAGGSAGG [r11_1029_TrMRF]” the “folding stability dG unfold” value [1] was 1.54 ± 0.07 kcal/mol, the “folding stability dG unfold” value [2] was 2.88 ± 0.054 kcal/mol and the “folding stability dG unfold” value [3] was 2.41 ± 0.18 kcal/mol.

For “SAGGSAGGSEVKVLVYPPKGPPRLFADDVPIETLVAQFTAEDPPEPLVLVTKEEAEKLGFPLESAGGSAGGS [r12_379_TrMRF]”, the “folding stability dG unfold” value [1] was 0.435 ± 0.047 kcal/mol, the “folding stability dG unfold” value [2] was 0.15 ± 0.14 kcal/mol and the “folding stability dG unfold” value [3] was 0.27 ± 0.22 kcal/mol.

For “SAGGSAGGSAKLVKITFSNGEELVLPADKFSIEAIKSLPVPAKVEVFDVPKSDTNLEDLLKSAGGSAGGSAG [r3_69_TrMRF]”, the “folding stability dG unfold” value [1] was 0.72 ± 0.043 kcal/mol, the “folding stability dG unfold” value [2] was 2.03 ± 0.022 kcal/mol and the “folding stability dG unfold” value [3] was 1.66 ± 0.044 kcal/mol.

For “SAGGKIKIKSVEVQPNPDGMRKVTLEFQDGGKEHKVEIYVHPGGIMISIPNGKTRTIPWDDLDDIKLSAGGS [r16_593_TrROS]”, the “folding stability dG unfold” value [1] was 0.52 ± 0.093 kcal/mol, the “folding stability dG unfold” value [2] was 1.22 ± 0.15 kcal/mol and the “folding stability dG unfold” value [3] was 1.01 ± 0.18 kcal/mol.

In the case of “SAGGSAGGSPVPVKVVVKLPSSDKTIELTLYPPDVSPDSVVTVDLGGPAIDVKLLPGDVLELSPSAGGSAGG [r6_461_JUSTAS]”, the “folding stability dG unfold” value [1] is reported as 0.114 ± 0.034 kcal/mol, the “folding stability dG unfold” value [2] is reported as 0.524 ± 0.039 kcal/mol and the “folding stability dG unfold” value [3] is reported as 0.323 ± 0.097 kcal/mol.

For “SMTIRVEGVPPGVTAEELAARLRAELEAAGYEVTSIKVTRRADGSLVVEIEVKPAPPPEPVEVVEEREEESA [r9_953_TrROS_Hall]”, the “folding stability dG unfold” value [1] was 3.4 ± 0.13 kcal/mol, the “folding stability dG unfold” value [2] was 3.75 ± 0.16 kcal/mol and the “folding stability dG unfold” value [3] was 3.62 ± 0.17 kcal/mol.

— the supplement of paper PMC12764529
